For 1 substance, Km results are on record in paper PMC9275233, “Functional Characterization of a Regiospecific Sugar-O-Methyltransferase from Nocardia” (Applied and Environmental Microbiology, 2022).

Data set [1] concerns C[C@@H]1O[C@@H](Oc2ccc(O)c3c2C(=O)c2ccccc2C3=O)[C@H](O)[C@H](O)[C@H]1O. The data set can be described thus: HPLC methylation assay, nonlinear Michaelis-Menten fit. To be noted: 2 mM SAM (saturating), 2 mM MgCl2, 50 mM Tris-HCl pH 7.5, QR 5 to 200 μM. The data set is classed as biochemical, Nocardia sp. CS682.
Data set [2] deals with C[S+](CC[C@H](N)C(=O)O)C[C@H]1O[C@@H](n2cnc3c(N)ncnc32)[C@H](O)[C@@H]1O. Described as above. To be noted: 100 μM QR (near saturation), 2 mM MgCl2, 50 mM Tris-HCl pH 7.5, SAM 5 to 200 μM. It counts as biochemical, Nocardia sp. CS682.

Consider ThnM1 (Nocardia sp. CS682), for which the Michaelis constant (Km) (in general, the substrate concentration at which the rate is half of its maximum) was found to be 11.70 ± 1.97 µM in data set [1] and 32.7 ± 7.06 µM in data set [2].
